The values below come from patent publication US20150104459A1.

Common to all, as to conditions: remark: other sources report otherwise
Assay [1] has as its target recombinant soluble homotrimeric HA of A/Netherlands/219/03 (H7N7) (Influenza A virus A/Netherlands/219/03 (H7N7)). Description: HA microarray, BCC supernatant.
For assay [2], the target named is recombinant soluble homotrimeric HA of A/Wisconsin/67/05 (H3N2) (Influenza A virus A/Wisconsin/67/2005 (H3N2)). The assay can be described thus: HA microarray, BCC supernatant.
Assay [3] deals with recombinant soluble homotrimeric HA of A/chicken/Vietnam/NCVD-016/08 (H5N1) (Influenza A virus A/chicken/Vietnam/NCVD-016/2008 (H5N1)). Description: HA microarray, BCC supernatant.
Assay [4] deals with recombinant soluble homotrimeric HA of A/Japan/305/57 (H2N2) (Influenza A virus A/Japan/305/1957 (H2N2)). The assay can be described thus: HA microarray, BCC supernatant.
For assay [5], the target named is recombinant soluble homotrimeric HA of A/swine/Ontario/01911-2/99 (H4N6) (Influenza A virus A/Swine/Ontario/01911-2/99 (H4N6)). The assay can be described thus: HA microarray, BCC supernatant.
Assay [6] concerns the target recombinant soluble homotrimeric HA of A/northern shoveler/California/HKWF115/2007 (H6N1) (Influenza A virus A/northern shoveler/California/HKWF115/2007 (H6N1)). The assay can be described thus: HA microarray, BCC supernatant.
Assay [7] addresses recombinant soluble homotrimeric HA of A/Solomon Islands/3/06 (H1N1) (Influenza A virus A/Solomon Islands/3/2006 (H1N1)). The assay can be described thus: HA microarray, BCC supernatant.
Assay [8] has as its target recombinant soluble homotrimeric HA of A/California/4/09 (H1N1) (Influenza A virus A/California/04/2009 (H1N1)). The assay can be described thus: HA microarray, BCC supernatant.
The target of assay [9] is recombinant soluble homotrimeric HA of A/duck/Yangzhou/02/2005 (H8N4) (Influenza A virus A/duck/Yangzhou/02/2005 (H8N4)). The assay can be described thus: HA microarray, BCC supernatant.
The target of assay [10] is recombinant soluble homotrimeric HA of A/Egypt/3300-NAMRU3/08 (H5N1) (Influenza A virus A/Egypt/3300-NAMRU3/2008 (H5N1)). The assay can be described thus: HA microarray, BCC supernatant.
Assay [11] deals with recombinant soluble homotrimeric HA of A/Anhui/1/05 (H5N1) (Influenza A virus A/Anhui/1/2005 (H5N1)). The assay can be described thus: HA microarray, BCC supernatant.
Assay [12] addresses recombinant soluble homotrimeric HA of A/Vietnam/1203/04 (H5N1) (Influenza A virus A/Vietnam/1203/2004 (H5N1)). The assay can be described thus: HA microarray, BCC supernatant.
For assay [13], the target named is recombinant soluble homotrimeric HA of A/Indonesia/5/05 (H5N1) (Influenza A virus A/Indonesia/5/2005 (H5N1)). The assay can be described thus: HA microarray, BCC supernatant.
The target of assay [14] is recombinant soluble homotrimeric HA, A/Hong Kong/156/97 (H5N1) (influenza A virus A/Hong Kong/156/97 (H5N1)). Description: microarray, trimeric HA, transfection supernatant.
The target of assay [15] is recombinant soluble homotrimeric HA, A/northern shoveler/California/HKWF115/2007 (H6N1) (influenza A virus A/northern shoveler/California/HKWF115/2007 (H6N1)). The assay can be described thus: microarray, trimeric HA, transfection supernatant.
Assay [16] has as its target recombinant soluble homotrimeric HA, A/chicken/Vietnam/NCVD-016/08 (H5N1) (influenza A virus A/chicken/Vietnam/NCVD-016/2008 (H5N1)). Description: microarray, trimeric HA, transfection supernatant.
In assay [17] the target is recombinant soluble homotrimeric HA, A/duck/Yangzhou/02/2005 (H8N4) (influenza A virus A/duck/Yangzhou/02/2005 (H8N4)). Description: microarray, trimeric HA, transfection supernatant.
The target in assay [18] is recombinant soluble homotrimeric HA, A/Anhui/1/05 (H5N1) (influenza A virus A/Anhui/1/2005 (H5N1)). Description: microarray, trimeric HA, transfection supernatant.

B1: TCN-532 (5262_H18) (antibody, V domains shown)
VH: QVQLQESGPGLVKPSETLSLTCTVSGGSVSSETYYWSWIRQPPGKGLEWIGYIYYIGNTDYRPSLKSRVTISLDTSKNQFSLKLSSVTAADTAVYYCARGAYYDSSGYPAFYIWGQGTMVTVSS
VL: QSVLTQPPSVSGAPGQRVTISCTGSSSNIGSDYDVHWYKQLPGTAPKLLIFGNSNRPSGVPDRFSGSKSGTSASLAITGLQAEDEADYYCQSYDSSLSGFHVFGSGTKVTVL
On to B1, for which the Trimeric HA Binding RLU worked out at 327 RLU in [1]; 18000 RLU in [2]; 46 RLU in assay [3]; 176 RLU in [4]; 119 RLU in assay [5]; 511 RLU in assay [6]. In addition, the Trimeric HA Binding RLU in assay [7] came to 327 RLU.

B2: TCN-552 (5249_I23) (antibody, V domains shown)
VH: QVQVVQSGAEVKKPGSSVRVSCQASGGTFMNYAIIWVRRAPGQGLEWMGGIIPVFPTPNYAQMFQGRVTISTDESRSTSFLELTNLRYEDTAVYYCARRIYHGGNSGFDFWGQGTLVTVSS
VL: EIVLTQSPATLSLSPGERATLSCRASQSVGNYLAWYQQKPGQAPRLLIYDSSNRAPGIPARFSGSGSGTDFTLTISSLAPEDFAVYYCQQRSKWPPMYSFGHGTKLEIK
For the molecule B2, the Trimeric HA Binding RLU in [8] was 35300 RLU; in assay [9] it was 13100 RLU; in assay [2], 14800 RLU; in assay [3], 46200 RLU; in assay [10], 40000 RLU; in [4] it was 23800 RLU. Besides, the Trimeric HA Binding RLU was determined as 4160 RLU in assay [11]; 38400 RLU in [6]; 2730 RLU in assay [12]; 39300 RLU in assay [7]; 43600 RLU in assay [13]; 36300 RLU in assay [14]. The Trimeric HA Binding RLU was 43900 RLU in assay [15], 34500 RLU in [16] and 15900 RLU in [17].

B3: TCN-563 (5237_B21) (antibody, V domains shown)
VH: QVQLAQSGAEVKRPGSSVKVSCTASGGIFRKNAISWVRQAPGQGLEWMGGIIAVFNTANYAQKFQGRVKITADESGNTAYMELSSLRSDDTAVYYCASHPKYFYGSGSYPDFWGQGTLVTVSS
VL: QSALTQPRSVSGSPGQSVTISCTGSSSDVGASNSVSWYQQHPGKAPKLVIYDVTERPSGVPHRFSGSKSGNTASLTVSGLQPEDEADYFCCAYGGKYLVVFGGGTKVTVL
On to B3, for which the Trimeric HA Binding RLU in [1] stood at 7520 RLU; in assay [8], 45200 RLU; in assay [9], 46700 RLU; in assay [2], 40800 RLU; in [3] it was 41000 RLU; in [10], 27500 RLU. The Trimeric HA Binding RLU was determined as 6610 RLU in [4]; 9580 RLU in assay [11]; 4500 RLU in assay [5]; 27300 RLU in [6]; 4840 RLU in assay [12]; 30000 RLU in assay [7]. Moreover, the Trimeric HA Binding RLU in assay [13] is 39500 RLU.

B4: TCN-530 (5248_H10a) (antibody, V domains shown)
VH: QVQLVQSGAEVRKPGSSVKVSCKASGGPFMSYAIGWVRQAPGQGLEWMGGINPVFGRPHYAQKFQGRVTIATDDSTKTSYMELSSLTSEDTGMYYCASRYSRSSPGTFESWGQGTLVTVSS
VL: EIVMTQFPATLSVSPGERVTLSCRASQSVSNNLAWYQQKPGQPPRLLIYDASTRATGVPAKFSGTGSGTEFTLSISSLQSEDFAVYYCQQYHNWPPSYSFGLGTKLEIK
Regarding B4, the Trimeric HA Binding RLU in assay [8] is 46600 RLU; in [2], 36800 RLU; in assay [3] it was 48300 RLU; in assay [10], 30400 RLU; in assay [4] it was 47000 RLU; in assay [11] it was 11900 RLU. The Trimeric HA Binding RLU was found to be 45300 RLU in assay [6], 7150 RLU in [12], 32800 RLU in assay [7] and 39800 RLU in assay [13].

B5: TCN-537 (3194_D21) (antibody, V domains shown)
VH: QVQLQQWGSGLLKPSETLSLTCAVYGGSFRDDYWTWIRQPPGKGLEWIGEINHSGRTNYNPSLKSRVTISVDTSLKQFSLKVISVTAADTAVYYCARGTSHVSRYFDWLPPTNWFDPWGQGTQVTVSS
VL: DIVLTQSPGTLSLSPGERATLSCRASQSVSSSYLAWYQQKPGQAPRLVMYGAATRATGIPDRFSGSGSGPDFTLTISRLEPEDFAMYYCQQYGNSPITFGQGTRLEIK
Take B5: the Trimeric HA Binding RLU in assay [8] amounted to 21900 RLU; in assay [9], 7830 RLU; in assay [2], 549 RLU; in assay [3], 8620 RLU; in [10] it was 38200 RLU; in assay [4] it was 44700 RLU. Moreover, the Trimeric HA Binding RLU was 19 RLU in assay [5]; 5210 RLU in [6]; 14900 RLU in [13]; 10700 RLU in [14]; 4480 RLU in [16]; 25500 RLU in [17].

B6: TCN-548 (5092_P01) (antibody, V domains shown)
VH: QVQLQESGPGLVKPSETLSLTCTVSSGPMSDYYWSWIRQPPGKGLEWIGHVSVSHGGRTKSNPSVMSRVTISVETSKNQFSLKLTSVTAADTAVYYCARLNYYDRSGYHSPDGPSNNWFDPWGQGTLVTVSS
VL: not shown
As to B6, the Trimeric HA Binding RLU in assay [8] turned out to be 234 RLU; in [9] it was 184 RLU; in [3], 254 RLU; in assay [4] it was 416 RLU; in [6], 314 RLU; in assay [7], 283 RLU. For the same molecule, the Trimeric HA Binding RLU in [15] is 2100 RLU; in assay [16], 1060 RLU; in [17] it was 5740 RLU.

B7: TCN-536 (5095_N01) (antibody, V domains shown)
VH: QVQLQQWGAGLLKPSETLSLTCAVYGGSFSVSGYYWSWIRQPPGRGLEWIGEISHGGSTNYNPSLKSRVTISVDTTKNQFSLRLSSVTAADTAVYYCARGTDPDTEVYCRVGNCAAFDYWGQGSLVTVSS
VL: EIILAQSPGTLSLSPGERATLSCRASQFVSTRSLAWYQQRPGQAPRLLIYGASSRATGIPDRFSGSGSGTDFTLTISRLEPEDFAVYYCQHYGYSPRYAFGQGSKVEIK
Regarding B7, the Trimeric HA Binding RLU in assay [8] stood at 151 RLU; in assay [2], 35000 RLU; in [3], 287 RLU; in assay [4] it was 121 RLU; in [5], 79 RLU.

B8: TCN-553 (5261_C18) (antibody, V domains shown)
VH: QVQVVQSGTEVKKPGSSVKVSCQTSGGRFMSYAITWVRQAPGQGLEWMGGIVPVFGTANYAQKFQGRVTITTDDSTRTAYMELSSLRSEDTAVYYCGFRYGSGYGFDSWGQGTLVTVSS
VL: EIVLTQSPGTLSLSPGERATLSCRASQSVSSSYLAWYQKKPGQAPRLLIYGASTRATGIPDRFTGSGSGTDFTLSISRLEPEDFAVYYCQHFGTSVFTFGGGTKVEIK
Take B8: the Trimeric HA Binding RLU in [8] is 20300 RLU; in assay [9], 28000 RLU; in assay [2], 20000 RLU; in assay [3] it was 24200 RLU; in [10], 18800 RLU; in assay [4], 25500 RLU. The Trimeric HA Binding RLU in [11] was 12600 RLU; in assay [5], 2580 RLU; in assay [6], 21700 RLU; in assay [12], 6560 RLU; in assay [7] it was 16300 RLU; in assay [13], 24400 RLU. The Trimeric HA Binding RLU in assay [14] was 36300 RLU; in assay [15], 32500 RLU; in [16], 34700 RLU; in assay [17], 12500 RLU; in [18] it was 8550 RLU.
